Substitutions are numbered along the chain they refer to.
Columns and labels:
Assay in all cases: SPR; KD relative to WT C2;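 further: biacore SPR at 37 °C, anti-C2 mAbs captured on an anti-human IgG chip, alanine or serine C2 surface mutants tested, KD from 1:1 fit compared with wild-type C2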
human C2 S469A = target: T1, human C2 S469A (human, UniProt P06681 21-752)
T1 sequence: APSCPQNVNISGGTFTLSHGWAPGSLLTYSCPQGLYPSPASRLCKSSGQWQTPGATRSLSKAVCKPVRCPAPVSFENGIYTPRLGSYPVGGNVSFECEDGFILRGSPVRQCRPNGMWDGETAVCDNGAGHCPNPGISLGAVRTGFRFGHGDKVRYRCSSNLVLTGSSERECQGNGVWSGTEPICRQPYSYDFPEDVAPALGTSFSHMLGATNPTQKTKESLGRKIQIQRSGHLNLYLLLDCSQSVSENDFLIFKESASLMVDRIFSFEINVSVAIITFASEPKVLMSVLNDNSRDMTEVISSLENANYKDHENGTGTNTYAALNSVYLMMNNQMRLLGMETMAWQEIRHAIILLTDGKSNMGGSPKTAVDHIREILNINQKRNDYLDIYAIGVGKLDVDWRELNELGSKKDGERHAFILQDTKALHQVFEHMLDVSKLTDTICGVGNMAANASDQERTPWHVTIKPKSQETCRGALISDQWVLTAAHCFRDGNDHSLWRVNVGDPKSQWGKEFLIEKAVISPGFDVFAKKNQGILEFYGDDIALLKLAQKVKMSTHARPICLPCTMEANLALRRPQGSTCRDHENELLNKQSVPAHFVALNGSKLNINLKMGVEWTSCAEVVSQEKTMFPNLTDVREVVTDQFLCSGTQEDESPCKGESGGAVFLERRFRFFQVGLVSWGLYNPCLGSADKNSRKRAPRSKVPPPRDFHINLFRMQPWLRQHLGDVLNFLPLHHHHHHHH

human C2 D269A = target: T2, human C2 D269A (human, UniProt P06681 21-752)
T2 sequence: T1 sequence with D249A, A449S

human C2 R493A = target: T3, human C2 R493A (human, UniProt P06681 21-752)
T3 sequence: T1 sequence with A449S, R473A

human C2 N380A = target: T4, human C2 N380A (human, UniProt P06681 21-752)
T4 sequence: T1 sequence with N360A, A449S

Fold diff (human C2 S469A): 3 fold
Fold diff (human C2 D269A): 1 fold
Fold diff (human C2 R493A): 1 fold
Fold diff (human C2 N380A): 2 fold
B1: RF16-214 (antibody, V domains shown)
VH: EVQLLESGGGLVQPGGSLRLSCAASGFTFSWYQMMWVRQAPGKGLEWVSRIYPSGGGTAYADSVKGRFTISRDNSKNTLYLQMNSLRAEDTAVYYCARDAGYGDNWGQGTLVTVSS
VL: QSALTQPPSVSVSPGQTASITCSGDKLGEKYASWYQQKAGQSPVMVIYQDRKRPSGIPERFSGSNSGNTATLTISGTQAMDEADYYCQAWDTRAVVFGGGTKLTVLG

Reference: US20220332804A1 (CSL INNOVATION, published 2022)
